# Test results reported in the supplement of paper PMC10219994.
# ± gives the standard deviation of the averaged measurements.
# B1: library; a variant is named by its letters at N, in order (parent)
# chain: GAGACCGCAACTGAAAAGTTGTGGNNNNNATAGTGAGTCGCTGCCTGCAAAGACACAACT
# Variants of: B1
# Experiment: ligation selection enrichment (abundance after / before one-round selection) (fold); higher = more template-directed ligation activity
# Settings: with T7Psub CACGGAUGCUAAUACGACUCACUAUA; MgCl2 25 mM; 42 °C; 4 h; pH 8.5
# Procedure, shortened: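 Two independent reactions combined a T7-transcribed RNA ligase library with five randomized core positions (0.75 μM) and RNA substrate (6 μM) in 50 mM EPPS pH 8.5, 25 mM MgCl2, run for 4 h at 42 °C. The ligated products were sequenced on a MiSeq, and only reads with quality ≥30 at all randomized positions were counted. Enrichment is the abundance after ligation divided by the abundance before ligation.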
row,Variant,ligation selection enrichment
1,GAGACCGCAACTGAAAAGTTGTGGGATCTATAGTGAGTCGCTGCCTGCAAAGACACAACT [GATCT],0.306 ± 0.085
2,GAGACCGCAACTGAAAAGTTGTGGGATGAATAGTGAGTCGCTGCCTGCAAAGACACAACT [GATGA],0.606 ± 0.077
3,GAGACCGCAACTGAAAAGTTGTGGAATGAATAGTGAGTCGCTGCCTGCAAAGACACAACT [AATGA],0.528 ± 0.046
4,GAGACCGCAACTGAAAAGTTGTGGCATGAATAGTGAGTCGCTGCCTGCAAAGACACAACT [CATGA],0.381 ± 0.068
5,GAGACCGCAACTGAAAAGTTGTGGTATGAATAGTGAGTCGCTGCCTGCAAAGACACAACT [TATGA],2.32 ± 0.16
6,GAGACCGCAACTGAAAAGTTGTGGTATGCATAGTGAGTCGCTGCCTGCAAAGACACAACT [TATGC],0.29 ± 0.026
7,GAGACCGCAACTGAAAAGTTGTGGGATGCATAGTGAGTCGCTGCCTGCAAAGACACAACT [GATGC],0.247 ± 0.024
8,GAGACCGCAACTGAAAAGTTGTGGAATGCATAGTGAGTCGCTGCCTGCAAAGACACAACT [AATGC],0.198 ± 0.015
9,GAGACCGCAACTGAAAAGTTGTGGCATGCATAGTGAGTCGCTGCCTGCAAAGACACAACT [CATGC],0.1307 ± 0.00014
10,GAGACCGCAACTGAAAAGTTGTGGTATGGATAGTGAGTCGCTGCCTGCAAAGACACAACT [TATGG],0.616 ± 0.093
11,GAGACCGCAACTGAAAAGTTGTGGAATGGATAGTGAGTCGCTGCCTGCAAAGACACAACT [AATGG],0.467 ± 0.097
12,GAGACCGCAACTGAAAAGTTGTGGGATGGATAGTGAGTCGCTGCCTGCAAAGACACAACT [GATGG],0.46 ± 0.1
13,GAGACCGCAACTGAAAAGTTGTGGCATGGATAGTGAGTCGCTGCCTGCAAAGACACAACT [CATGG],0.226 ± 0.027
14,GAGACCGCAACTGAAAAGTTGTGGAATGTATAGTGAGTCGCTGCCTGCAAAGACACAACT [AATGT],0.153 ± 0.076
15,GAGACCGCAACTGAAAAGTTGTGGTATGTATAGTGAGTCGCTGCCTGCAAAGACACAACT [TATGT],0.135 ± 0.031
16,GAGACCGCAACTGAAAAGTTGTGGGATGTATAGTGAGTCGCTGCCTGCAAAGACACAACT [GATGT],0.126 ± 0.036
17,GAGACCGCAACTGAAAAGTTGTGGCATGTATAGTGAGTCGCTGCCTGCAAAGACACAACT [CATGT],0.109 ± 0.064
18,GAGACCGCAACTGAAAAGTTGTGGAATTAATAGTGAGTCGCTGCCTGCAAAGACACAACT [AATTA],0.421 ± 0.03
19,GAGACCGCAACTGAAAAGTTGTGGGATTAATAGTGAGTCGCTGCCTGCAAAGACACAACT [GATTA],0.278 ± 0.094
20,GAGACCGCAACTGAAAAGTTGTGGTATTAATAGTGAGTCGCTGCCTGCAAAGACACAACT [TATTA],0.197 ± 0.042
21,GAGACCGCAACTGAAAAGTTGTGGCATTAATAGTGAGTCGCTGCCTGCAAAGACACAACT [CATTA],0.16 ± 0.038
22,GAGACCGCAACTGAAAAGTTGTGGAATTCATAGTGAGTCGCTGCCTGCAAAGACACAACT [AATTC],0.201 ± 0.075

row,Variant,ligation selection enrichment
1,GAGACCGCAACTGAAAAGTTGTGGTATTCATAGTGAGTCGCTGCCTGCAAAGACACAACT [TATTC],0.186 ± 0.0052
2,GAGACCGCAACTGAAAAGTTGTGGGATTCATAGTGAGTCGCTGCCTGCAAAGACACAACT [GATTC],0.183 ± 0.0076
3,GAGACCGCAACTGAAAAGTTGTGGCATTCATAGTGAGTCGCTGCCTGCAAAGACACAACT [CATTC],0.152 ± 0.013
4,GAGACCGCAACTGAAAAGTTGTGGCATTGATAGTGAGTCGCTGCCTGCAAAGACACAACT [CATTG],1.24 ± 0.22
5,GAGACCGCAACTGAAAAGTTGTGGTATTGATAGTGAGTCGCTGCCTGCAAAGACACAACT [TATTG],2.17 ± 0.33
6,GAGACCGCAACTGAAAAGTTGTGGGATTGATAGTGAGTCGCTGCCTGCAAAGACACAACT [GATTG],1.47 ± 0.2
7,GAGACCGCAACTGAAAAGTTGTGGAATTGATAGTGAGTCGCTGCCTGCAAAGACACAACT [AATTG],1.46 ± 0.055
8,GAGACCGCAACTGAAAAGTTGTGGAATTTATAGTGAGTCGCTGCCTGCAAAGACACAACT [AATTT],0.624 ± 0.11
9,GAGACCGCAACTGAAAAGTTGTGGGATTTATAGTGAGTCGCTGCCTGCAAAGACACAACT [GATTT],0.577 ± 0.15
10,GAGACCGCAACTGAAAAGTTGTGGCATTTATAGTGAGTCGCTGCCTGCAAAGACACAACT [CATTT],0.539 ± 0.13
11,GAGACCGCAACTGAAAAGTTGTGGTATTTATAGTGAGTCGCTGCCTGCAAAGACACAACT [TATTT],0.402 ± 0.22
12,GAGACCGCAACTGAAAAGTTGTGGTCAAAATAGTGAGTCGCTGCCTGCAAAGACACAACT [TCAAA],0.317 ± 0.039
13,GAGACCGCAACTGAAAAGTTGTGGGCAAAATAGTGAGTCGCTGCCTGCAAAGACACAACT [GCAAA],0.304 ± 0.025
14,GAGACCGCAACTGAAAAGTTGTGGACAAAATAGTGAGTCGCTGCCTGCAAAGACACAACT [ACAAA],0.227 ± 0.0041
15,GAGACCGCAACTGAAAAGTTGTGGCCAAAATAGTGAGTCGCTGCCTGCAAAGACACAACT [CCAAA],0.162 ± 0.034
16,GAGACCGCAACTGAAAAGTTGTGGTCAACATAGTGAGTCGCTGCCTGCAAAGACACAACT [TCAAC],0.48 ± 0.05
17,GAGACCGCAACTGAAAAGTTGTGGGCAACATAGTGAGTCGCTGCCTGCAAAGACACAACT [GCAAC],0.281 ± 0.015
18,GAGACCGCAACTGAAAAGTTGTGGACAACATAGTGAGTCGCTGCCTGCAAAGACACAACT [ACAAC],0.224 ± 0.024
19,GAGACCGCAACTGAAAAGTTGTGGCCAACATAGTGAGTCGCTGCCTGCAAAGACACAACT [CCAAC],0.217 ± 0.026
20,GAGACCGCAACTGAAAAGTTGTGGTCAAGATAGTGAGTCGCTGCCTGCAAAGACACAACT [TCAAG],0.718 ± 0.12
21,GAGACCGCAACTGAAAAGTTGTGGGCAAGATAGTGAGTCGCTGCCTGCAAAGACACAACT [GCAAG],0.562 ± 0.043
22,GAGACCGCAACTGAAAAGTTGTGGACAAGATAGTGAGTCGCTGCCTGCAAAGACACAACT [ACAAG],0.442 ± 0.0085
